# According to US9156883B2, “Binding molecules for human factor VIII and factor VIII-like proteins” (DYAX CORP., priority 1999, dated 2015):
# Positions of bridges follow the written chain, without caps; N, C: chain ends. No end group written: not given here. *: point of attachment. NHNH2 = NN*
# How the values were obtained:
# [1] = molecular target: T1, factor VIII-like polypeptide (REFACTO®) (Homo sapiens, UniProt P00451); experiment: Affinity chromatography capture and elution of REFACTO® on immobilized peptide columns; type: binding; settings: bound material eluted in the presence of ethylene glycol
# T1 construct: amino acids 1-743 and 1638 through 2332 of human factor VIII; purchased Genetics Institute, Inc. (Cambridge, Mass.)
# T1 sequence (P00451 20-762): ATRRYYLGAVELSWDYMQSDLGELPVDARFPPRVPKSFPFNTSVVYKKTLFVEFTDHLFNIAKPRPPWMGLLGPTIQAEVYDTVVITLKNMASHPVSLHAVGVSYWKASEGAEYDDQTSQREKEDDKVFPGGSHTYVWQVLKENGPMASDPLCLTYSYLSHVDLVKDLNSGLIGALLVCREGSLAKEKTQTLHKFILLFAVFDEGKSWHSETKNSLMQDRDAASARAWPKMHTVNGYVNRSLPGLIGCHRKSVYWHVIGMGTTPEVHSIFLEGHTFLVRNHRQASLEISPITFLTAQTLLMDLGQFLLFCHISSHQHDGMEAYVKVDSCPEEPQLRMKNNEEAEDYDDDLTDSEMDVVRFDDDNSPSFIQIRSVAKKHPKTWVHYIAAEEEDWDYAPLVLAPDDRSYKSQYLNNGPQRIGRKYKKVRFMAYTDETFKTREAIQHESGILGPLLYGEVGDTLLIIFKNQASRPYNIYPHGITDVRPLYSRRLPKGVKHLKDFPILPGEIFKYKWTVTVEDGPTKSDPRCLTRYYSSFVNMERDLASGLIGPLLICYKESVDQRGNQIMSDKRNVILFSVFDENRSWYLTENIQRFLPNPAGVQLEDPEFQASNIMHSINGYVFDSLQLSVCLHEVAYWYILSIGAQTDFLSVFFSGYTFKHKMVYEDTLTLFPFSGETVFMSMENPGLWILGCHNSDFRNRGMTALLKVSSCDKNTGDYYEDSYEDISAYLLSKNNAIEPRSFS
# T1 sequence (P00451 1657-2351): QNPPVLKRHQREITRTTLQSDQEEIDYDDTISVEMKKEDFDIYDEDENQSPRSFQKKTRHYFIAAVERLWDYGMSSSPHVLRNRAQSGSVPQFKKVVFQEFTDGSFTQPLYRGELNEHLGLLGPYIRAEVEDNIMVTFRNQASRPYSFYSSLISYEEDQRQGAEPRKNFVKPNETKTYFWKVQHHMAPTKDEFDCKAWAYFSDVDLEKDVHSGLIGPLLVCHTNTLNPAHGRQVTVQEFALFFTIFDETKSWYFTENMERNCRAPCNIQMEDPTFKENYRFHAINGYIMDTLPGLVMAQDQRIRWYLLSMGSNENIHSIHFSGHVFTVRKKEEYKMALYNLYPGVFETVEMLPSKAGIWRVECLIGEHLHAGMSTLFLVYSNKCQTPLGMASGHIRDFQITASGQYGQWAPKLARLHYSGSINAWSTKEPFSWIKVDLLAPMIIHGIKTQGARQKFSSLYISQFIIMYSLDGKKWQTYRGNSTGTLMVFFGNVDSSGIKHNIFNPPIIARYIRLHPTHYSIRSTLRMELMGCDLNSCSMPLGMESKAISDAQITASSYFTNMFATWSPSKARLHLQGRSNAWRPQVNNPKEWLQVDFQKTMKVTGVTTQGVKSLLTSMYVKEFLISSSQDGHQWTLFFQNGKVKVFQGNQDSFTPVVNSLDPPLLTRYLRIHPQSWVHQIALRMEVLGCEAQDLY
# Procedure: The candidate ligands were immobilized onto a formyl-substituted ethylene glycol-methacrylate chromatographic resin (Toyopearl Formyl 650-M, pore size of ˜1000 Å; TosoHaas, Montgomeryville, Pa.). The hydrazide-containing peptides were immobilized by facilitating hydrazone bond formation, the GI-1 and -2 peptides were immobilized via reductive amination using NaCNBH3. The amount of polypeptide immobilized on the solid support was determined by quantifying the amount of free polypeptide remaining in solution. The amount of ligand immobilized per ml of resin was in the range of 0.7-1.5 μmol for the hydrazine-immobilized peptides.
# The nine peptides were evaluated by affinity chromatography for their ability to capture the REFACTO® described in Example I, under specific binding and release conditions.
# The factor VIII-like polypeptide (REFACTO®) was diluted in SP Buffer to a concentration of 150 μg/ml. The affinity resins (˜350 μl) were each packed into glass columns, and approximately 150 μg of the factor VIII target was applied to the prepared affinity columns at a flow rate of 200 μl/minute (linear velocity of 170 cm/hour). […] Fractions were collected and the mass and activity of recovered factor VIII-like polypeptide was determined by reversed-phase HPLC and by enzymatic assay.
# For the mass determination, a standard curve with REFACTO® (0-200 μg) was generated and the amount present in each fraction was calculated according to techniques well known in the art. Reversed-phase HPLC in the presence of 20 mM EDTA was used to disrupt the REFACTO® molecule into its component subunits, which were eluted with a gradient of acetonitrile/0.01% TFA. The activity assay was a Factor IX-, X-based assay. The results for each affinity resin are set forth below (Table 6).
# [2] = molecular target: T2, REFACTO® (factor VIII-like polypeptide, amino acids 1-743 and 1638 through 2332 of human factor VIII) (Homo sapiens, UniProt P00451); experiment: Phage ELISA of third-round isolates for binding to the factor VIII target; settings: TN8 library phage isolates; HRP anti-M13, TMB, absorbance at OD630
# T2 construct: amino acids 1-743 and 1638 through 2332 of human factor VIII; purchased Genetics Institute, Inc. (Cambridge, Mass.)
# T2 sequence (P00451 20-762): T1 sequence (P00451 20-762)
# T2 sequence (P00451 1657-2351): T1 sequence (P00451 1657-2351)
# From the text: The techniques described above were employed to isolate high affinity binding molecules for ligands for recombinantly produced factor VIII-like polypeptide consisting of two segments of human factor VIII, i.e., amino acids 1-743 and 1638 through 2332 of human factor VIII, as described in U.S. Pat. No. 5,661,008 (Almstedt et al.), obtained under the commercial designation of REFACTO® from Genetics Institute, Inc. (Cambridge, Mass.). The REFACTO® target was provided at a concentration of about 530 μg/ml (7800 IU/ml) in 19.4 mM His, 300 mM NaCl, 3.4 mM CaCl2 and 0.1% Tween 80, pH 7.0.
# Three libraries, designated TN7 (5×10^9 amino acid sequence diversity), TN8 (6×10^9 amino acid sequence diversity), and TN9 (5×10^9 amino acid sequence diversity), were constructed for expression of diversified polypeptides on M13 phage. Each library was screened for binders to purified REFACTO®. Each of the libraries was constructed to display a microprotein based on an 11- or 12-amino acid template. The TN7 library utilized a template sequence of Xaa-Xaa-Cys-Xaa-Xaa-Xaa-Xaa-Xaa-Cys-Xaa-Xaa; the TN8 library utilized a template sequence of Xaa-Xaa-Cys-Xaa-Xaa-Xaa-Xaa-Xaa-Xaa-Cys-Xaa-Xaa; the TN9 library utilized a template sequence of Xaa-Cys-Xaa-Xaa-Xaa-Xaa-Xaa-Xaa-Xaa-Cys-Xaa.
# Three rounds of screenings were carried out for each library. At the conclusion of the third round of screening eluted phage were propagated, and individual isolates from each library (96 per elution condition) were selected randomly and tested by standard ELISA techniques for binding to the factor VIII target. Bound phage were detected with HRP conjugated anti-M13 polyclonal antibody (Pharmacia). TMB Peroxidase substrate was used for HRP in the ELISA detection mechanism. TMB substrate produces a blue color after peroxidase digestion. The color is quantitated by absorbance at OD630. Phage isolates that provided a significant signal (OD630>0.25) above background were considered positive clones.
# Sequence data from the phage isolates were grouped by library and sorted according to the degree of similarity. The frequency at which any given sequence was obtained was noted since this indicates selection for a specific binder.
# [3] = Peptide stability, Asp-Pro changed to Glu-Pro; type: physicochemical; settings: DP changed to EP versus GI-2; Asp-Pro hydrolysis particularly at low pH
# From the text: Binding polypeptides were synthesized with the amino terminal residue acetylated and the carboxyl terminal residue as a free acid. The two cysteine residues are oxidized and form a disulfide bond which creates a cyclic peptide structure. The residues contained within the cyclic structure are underlined. The peptide sequence is identical to the sequence GI-2 shown in Table 4 except that the aspartic acid residue at position 19 has been changed to glutamic acid (bold).
Substance,capture of the factor VIII target by the affinity resin (in words) [1],further results
AEGTGDFHCIGVWFCLHDPGPEGGGS-NHNH2 (disulfide 9-15 (inferred)) [CS-455],inability of the CS-455 and GI-1 resins to capture the target,
Ac-AEGTGDRLCSWVSPCSADPEGGGSK (cysteine pairing not given here) [GI-1],inability of the CS-455 and GI-1 resins to capture the target,
AEGTGDHPCGSWLRPCLHDPGPEGGGS-NHNH2 (disulfide 9-16 (inferred)) [CS-453],captured virtually all of the factor VIII target applied,
AEGTGDFCWVFPFQHCADPGPEGGGS-NHNH2 (disulfide 8-16 (inferred)) [CS-459],captured virtually all of the factor VIII target applied,
10 (HPCGSWLRPCLH; Selected Phage Display Sequence) [compound 10],,ELISA signal [2]: 1.0
"Acetyl-AEGTGDHRCGSWLHPCLAEPGEGGGGSK (Ac-AEGTGDHRCGSWLHPCLAEPGEGGGGSK; disulfide 9-16 (inferred)) [TN8.2, cyclic disulfide peptide, GI-2 with Asp at position 19 changed to Glu]",,peptide stability (in words) [3]: improved peptide stability
